Reference: patent publication US20200199241A1 (Chugai, published 2020)
Where a chain is given by its changes, count along the chain named.

T1: FcγRIIb (human, UniProt P31994 43-217, limits assumed)
T1 construct: SPR analyte; also called FcγIIB; CD32
T1 sequence: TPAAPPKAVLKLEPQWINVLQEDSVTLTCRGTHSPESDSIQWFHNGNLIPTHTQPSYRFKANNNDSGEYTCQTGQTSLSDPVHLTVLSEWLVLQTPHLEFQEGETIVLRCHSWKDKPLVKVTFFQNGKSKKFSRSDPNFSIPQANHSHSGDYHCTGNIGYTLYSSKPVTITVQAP

T2: FcγRIIa type R (human, UniProt P12318 36-217)
T2 construct: SPR analyte; also called FcγRIIaR; FcγRIIa(R)
T2 chain: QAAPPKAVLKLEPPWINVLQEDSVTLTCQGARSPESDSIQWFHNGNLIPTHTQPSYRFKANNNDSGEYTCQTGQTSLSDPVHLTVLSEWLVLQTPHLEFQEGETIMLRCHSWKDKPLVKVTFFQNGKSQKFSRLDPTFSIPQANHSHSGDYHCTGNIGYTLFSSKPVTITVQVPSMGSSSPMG

T3: FcγRIIa type H (human, UniProt P12318 36-217)
T3 construct: SPR analyte; also called FcγRIIaH
T3 sequence: T2 chain with R133H

B1: IL6R-BF648/IL6R-L (antibody, human IgG1)
heavy: not shown
light: DIQMTQSPSSLSASVGDRVTITCRASQDISSYLNWYQQKPGKAPKLLIYYTSRLHSGVPSRFSGSGSGTDFTFTISSLQPEDIATYYCQQGNTLPYTFGQGTKVEIK
B2: IL6R-BP082/IL6R-L (antibody, human IgG1)
heavy: QVQLQESGPGLVKPSETLSLTCAVSGHSISHDHAWSWVRQPPGEGLEWIGFISYSGITNYNPSLQGRVTISRDNSKNTLYLQMNSLRAEDTAVYYCARSLARTTAMDYWGEGTLVTVSSASTKGPSVFPLAPSSKSTSGGTAALGCLVKDYFPEPVTVSWNSGALTSGVHTFPAVLQSSGLYSLSSVVTVPSSSLGTQTYICNVNHKPSNTKVDKKVEPKSCDKTHTCPPCPAPDLLGGDSVFLFPPKPKDTLMISRTPEVTCVVVDVSHEDPEVKFNWYVDGVEVHNAKTKPREEQYNSTYRVVSVLTVLHQDWLNGKEYKCKVSNKALPKPIEKTISKAKGQPREPQVYTLPPSRDELTKNQVSLTCLVKGFYPSDIAVEWESNGQPENNYKTTPPVLDSDGSFFLYSKLTVDKSRWQQGNVFSCSVMHEALHNHYTQESLSLSP
light: B1 light
B3: IL6R-BP149/IL6R-L (antibody, human IgG1)
heavy: B2 heavy with L236Y, G239D, Y298D, K328A
light: B1 light
B4: IL6R-BP177/IL6R-L (antibody, human IgG1)
heavy: B2 heavy with L236Y, G239D, P273G, K328D
light: B1 light
B5: IL6R-BP087/IL6R-L (antibody, human IgG1)
heavy: B2 heavy with D235E, L236Y
light: B1 light
B6: IL6R-BP150/IL6R-L (antibody, human IgG1)
heavy: B2 heavy with D235E, L236Y, G239D, K328A, K332R
light: B1 light
B7: IL6R-BP180/IL6R-L (antibody, human IgG1)
heavy: B2 heavy with D235E, G239D, P273G
light: B1 light
B8: IL6R-BP143/IL6R-L (antibody, human IgG1)
heavy: B2 heavy with D235E, L236Y, K328A, K332A
light: B1 light
B9: IL6R-BP130/IL6R-L (antibody, human IgG1)
heavy: B2 heavy with V325M
light: B1 light
B10: IL6R-BP086/IL6R-L (antibody, human IgG1)
heavy: B2 heavy with D235E, K328A
light: B1 light
B11: IL6R-BP151/IL6R-L (antibody, human IgG1)
heavy: B2 heavy with L236Y, G239D, K328A, K332R
light: B1 light
B12: IL6R-BP131/IL6R-L (antibody, human IgG1)
heavy: B2 heavy with G239D
light: B1 light
B13: IL6R-BP152/IL6R-L (antibody, human IgG1)
heavy: B2 heavy with L236Y, G239D, Y298D, K328A, K332R
light: B1 light
B14: IL6R-BP178/IL6R-L (antibody, human IgG1)
heavy: B2 heavy with G239D, P273G
light: B1 light

target: T1, FcγRIIb; test: ratio of SPR KDs: KD for FcγRIIaH over KD for FcγRIIb
Description: (§1) Furthermore, KD(IIaR)/KD(IIb) and KD(IIaH)/KD(IIb) in the table respectively represent the value obtained by dividing the KD value of each variant for FcγRIIaR by the KD value of each variant for FcγRIIb, and the value obtained by dividing the KD value of each variant for FcγRIIaH by the KD value of each variant for FcγRIIb.

Row | Binder | KD(IIaH)/KD(IIb)
1 | B1 | 33.9
2 | B2 | 69
3 | B3 | 89.9
4 | B4 | 159
5 | B5 | 34.7
6 | B6 | 109
7 | B7 | 191
8 | B8 | 47.1
9 | B9 | 85.5
10 | B10 | 59.9
11 | B11 | 118
12 | B12 | 56.9

Target: T2, FcγRIIa type R
Test: ratio of SPR KDs; stronger receptor here FcγRIIaR; reference IL6R-B3/IL6R-L (FcγRIIaH)
Description: (§2) Furthermore, KD(IIaR)/KD(IIb) and KD(IIaH)/KD(IIb) in the table respectively represent the value obtained by dividing the KD value of each variant for FcγRIIaR by the KD value of each variant for FcγRIIb, and the value obtained by dividing the KD value of each variant for FcγRIIaH by the KD value of each variant for FcγRIIb. KD(IIb) of the parent polypeptide/KD(IIb) of the altered polypeptide refers to the value obtained by dividing the KD value of the parent polypeptide for FcγRIIb by the KD value of each variant for FcγRIIb.

Row | Binder | KD of the stronger of FcγRIIaR/FcγRIIaH binding of the variant / that of the parent polypeptide
13 | B1 | 19.9
14 | B2 | 15.8
15 | B3 | 1.8
16 | B4 | 0.9
17 | B5 | 12.6
18 | B13 | 1
19 | B6 | 0.7
20 | B7 | 1.5
21 | B8 | 7.5
22 | B9 | 6.9
23 | B14 | 1.2
24 | B10 | 12.6
25 | B11 | 0.9
26 | B12 | 4

target: T1, FcγRIIb; test: ratio of SPR KDs: KD for FcγRIIaR over KD for FcγRIIb
Description: as §1

Row | Binder | KD(IIaR)/KD(IIb)
27 | B1 | 13
28 | B2 | 22.8
29 | B3 | 15
30 | B4 | 13.8
31 | B5 | 16
32 | B6 | 17.7
33 | B7 | 18.6
34 | B8 | 10
35 | B9 | 17.5
36 | B10 | 17.1
37 | B11 | 16.9
38 | B12 | 12.5

Target: T2, FcγRIIa type R
Test: SPR (Biacore), antibody captured, FcγR analyte
Description: as §2

Row | Binder | Kd
39 | B1 | 15000 nM
40 | B2 | 12000 nM
41 | B3 | 1400 nM
42 | B4 | 710 nM
43 | B5 | 9700 nM
44 | B13 | 810 nM
45 | B6 | 550 nM
46 | B7 | 1200 nM
47 | B8 | 5700 nM
48 | B9 | 5300 nM
49 | B14 | 930 nM
50 | B10 | 9700 nM
51 | B11 | 670 nM
52 | B12 | 3100 nM

target: T1, FcγRIIb; test: SPR (Biacore), antibody captured, FcγR analyte
Description: as §2

Row | Binder | Kd
53 | B1 | 1200 nM
54 | B2 | 540 nM
55 | B3 | 93 nM
56 | B4 | 52 nM
57 | B5 | 610 nM
58 | B13 | 41 nM
59 | B6 | 31 nM
60 | B7 | 62 nM
61 | B8 | 570 nM
62 | B9 | 300 nM
63 | B14 | 51 nM
64 | B10 | 570 nM
65 | B11 | 40 nM
66 | B12 | 250 nM

target: T4, FcγRIIIa type V (human, UniProt P08637 17-208, limits assumed); test: SPR (Biacore), antibody captured, FcγR analyte
T4 construct: SPR analyte; allotype V158 was used here; also called FcγRIIIaV; FcγRIIIa(V)
T4 sequence (P08637 other isoform, or with tags, fused parts or gaps limits assumed): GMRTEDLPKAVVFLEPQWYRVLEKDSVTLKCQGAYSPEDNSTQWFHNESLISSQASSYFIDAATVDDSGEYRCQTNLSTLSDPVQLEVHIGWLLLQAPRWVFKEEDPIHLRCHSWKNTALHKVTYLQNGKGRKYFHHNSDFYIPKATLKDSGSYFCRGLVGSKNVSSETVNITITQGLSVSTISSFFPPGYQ
Description: as §2

Row | Binder | Kd
67 | B1 | 71000 nM
68 | B2 | 81000 nM
69 | B3 | 37000 nM
70 | B4 | 37000 nM
71 | B5 | 44000 nM
72 | B6 | 34000 nM
73 | B7 | 70000 nM
74 | B8 | 62000 nM
75 | B9 | 71000 nM
76 | B10 | 57000 nM
77 | B11 | 31000 nM
78 | B12 | 59000 nM

target: T5, FcγRIa (human, UniProt P12314 16-292, limits assumed); test: SPR (Biacore), antibody captured, FcγR analyte
T5 construct: SPR analyte; also called CD64
T5 sequence (P12314 16-292 limits assumed): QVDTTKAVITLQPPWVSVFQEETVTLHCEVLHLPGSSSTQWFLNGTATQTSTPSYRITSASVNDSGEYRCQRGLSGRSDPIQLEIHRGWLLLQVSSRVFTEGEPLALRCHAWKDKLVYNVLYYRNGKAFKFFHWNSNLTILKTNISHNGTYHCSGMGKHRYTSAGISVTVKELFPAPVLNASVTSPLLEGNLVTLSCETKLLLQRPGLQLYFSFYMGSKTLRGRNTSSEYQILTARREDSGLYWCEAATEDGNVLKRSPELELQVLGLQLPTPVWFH
Description: as §2

Row | Binder | Kd
79 | B1 | 11 nM
80 | B2 | 18 nM
81 | B3 | 120 nM
82 | B4 | 33 nM
83 | B5 | 38 nM
84 | B13 | 73 nM
85 | B6 | 320 nM
86 | B8 | 16 nM
87 | B9 | 1.8 nM
88 | B14 | 43 nM
89 | B10 | 27 nM
90 | B11 | 84 nM
91 | B12 | 120 nM

target: T3, FcγRIIa type H; test: SPR (Biacore), antibody captured, FcγR analyte
Description: as §2

Row | Binder | Kd
92 | B1 | 40000 nM
93 | B2 | 37000 nM
94 | B3 | 8400 nM
95 | B4 | 8200 nM
96 | B5 | 21000 nM
97 | B13 | 5600 nM
98 | B6 | 3400 nM
99 | B7 | 18000 nM
100 | B8 | 27000 nM
101 | B9 | 26000 nM
102 | B14 | 14000 nM
103 | B10 | 34000 nM
104 | B11 | 4700 nM
105 | B12 | 14000 nM

target: T1, FcγRIIb; test: ratio of SPR KDs; reference IL6R-B3/IL6R-L
Description: as §2

Row | Binder | KD(IIb) of the parent polypeptide/KD(IIb) of altered polypeptide
106 | B1 | 2.5
107 | B2 | 5.8
108 | B3 | 33.1
109 | B4 | 60
110 | B5 | 5.1
111 | B13 | 75
112 | B6 | 99
113 | B7 | 49.9
114 | B8 | 5.4
115 | B9 | 10.2
116 | B14 | 60.1
117 | B10 | 5.4
118 | B11 | 77.4
119 | B12 | 12.6
